The supplement of paper PMC10065799, “High-throughput profiling of sequence recognition by tyrosine kinases and SH2 domains using bacterial peptide display” (eLife, 2023)
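Wherever SH2 binding enrichment of the phosphorylated peptide, bacterial display is given: peptide library displayed on the E. coli surface as eCPX fusions, selected cells deep-sequenced, score is each peptide's frequency after selection divided by its frequency in the input.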
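Wherever phosphorylation enrichment, bacterial display is given: 11-residue human phosphosite peptides and single-mutation variants displayed on the E. coli surface, counted by deep sequencing, each peptide's frequency after selection divided by its frequency in the unselected input library; frequency after pTyr selection over input frequency; kinase dosed for 20-30% of maximal phosphorylation in three min.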

What follows are sequences tested on c-Src (assay: phosphorylation enrichment, bacterial display (enrichment ratio); higher = better substrate or ligand; peptides without Tyr show the background).
Sequence ASPALYRLDLD [TRIL_Y352] has a phosphorylation enrichment of 1.84.
LYEDRYLLGPS [ASS1_Y87_T91P] gave a phosphorylation enrichment of 1.5.
Work on FGLPRYRWLTH [TSPAN12_Y143_YF] yielded a phosphorylation enrichment of 0.448.
With AEQDWYHGAIP [FER_Y461] the phosphorylation enrichment was 1.19.
Work on EGNERYEGYCV [GRIA3_Y451] yielded a phosphorylation enrichment of 0.579.
Work on QAKRKYQEASK [FES_Y156] yielded a phosphorylation enrichment of 0.488.
SDQPDYDSVAS [GIT2_Y392_N387S] gave a phosphorylation enrichment of 0.525.
NVADHYRVFKP [ATP6V0D2_Y271_G272R_YF] showed a phosphorylation enrichment of 0.471.
LARHMYDKEFF [MET_Y1230_D1228H_YF] gave a phosphorylation enrichment of 0.688.
RMGNLYDIDED [GRIN2A_Y1246] was tested, and the phosphorylation enrichment was 1.25.
SVTCTYSPALF [TP53_Y126_N131Y_YF] gave a phosphorylation enrichment of 1.
FSALDYKIFYY [WDPCP_Y210_L205F] gave a phosphorylation enrichment of 0.763.
In the case of PSTFRYERGSR [INPPL1_Y663_P659S_YF], the phosphorylation enrichment is reported as 0.491.
RHTRSYDYTEG [FGF7_Y56_M59T] showed a phosphorylation enrichment of 0.476.
With TGQEEYSAMRD [KRAS_Y64_A59T] the phosphorylation enrichment was 0.525.
With NVKGIYAVGDV [GSR_Y371] the phosphorylation enrichment was 3.73.
Work on PFTRNYFVRAV [CYBA_Y87_YF] yielded a phosphorylation enrichment of 0.419.
Work on SIKHKYVTALF [KCNH2_Y611_D609H_YF] yielded a phosphorylation enrichment of 0.402.
RGESFYQDTMN [RARS_Y338_R341T] was tested, and the phosphorylation enrichment was 0.602.
Work on IITVHYVLEES [RYR2_Y4559_A4556T] yielded a phosphorylation enrichment of 0.523.
DRKRQYELLKL [KIF4B_Y684] showed a phosphorylation enrichment of 0.395.
For DRIVNYSRASV [ATP7A_Y1459_I1464V], the phosphorylation enrichment was 0.468.
With RSRSPYSPVLR [CDK13_Y399] the phosphorylation enrichment was 0.701.
In the case of RKLVDYDSARH [BIN1_Y150], the phosphorylation enrichment is reported as 0.649.
ETKGDYEKILV [ANXA1_Y335] showed a phosphorylation enrichment of 0.523.
In the case of EIPTQYEAMAS [GFAP_Y242_R239P], the phosphorylation enrichment is reported as 0.405.
DDSNPYINVKL [MTHFD1_Y52_L51P] was tested, and the phosphorylation enrichment was 0.59.
AHLTEYLSTHF [UQCRC1_Y219_D215H_YF] showed a phosphorylation enrichment of 0.525.
With LSGVIYVILWK [PMP22_Y153_R157W] the phosphorylation enrichment was 0.752.
IVWDSYTTNKV [GNB3_Y85] showed a phosphorylation enrichment of 0.359.
Sequence PDGVEYLKNNP [GRIN3A_Y831_D835N] has a phosphorylation enrichment of 0.539.
Work on YEEDSYVERSQ [RET_Y905_K907E] yielded a phosphorylation enrichment of 0.41.
With PRSRSYSSTSI [REPS2_Y462] the phosphorylation enrichment was 1.33.

What follows are sequences tested against Grb2 SH2 (UniProt P62993) (assay: SH2 binding enrichment of the phosphorylated peptide, bacterial display (enrichment ratio); higher = better substrate or ligand; peptides without Tyr show the background).
Grb2 SH2, sequence (P62993 whole entry, looked up): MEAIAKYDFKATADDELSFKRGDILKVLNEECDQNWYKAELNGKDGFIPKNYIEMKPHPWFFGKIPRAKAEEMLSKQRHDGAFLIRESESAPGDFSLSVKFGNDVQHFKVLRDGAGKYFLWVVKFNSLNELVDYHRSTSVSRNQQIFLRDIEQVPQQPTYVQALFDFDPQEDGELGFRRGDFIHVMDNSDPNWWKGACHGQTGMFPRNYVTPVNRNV
For ASPALYRLDLD [TRIL_Y352], the SH2 binding enrichment was 0.753.
For LYEDRYLLGPS [ASS1_Y87_T91P], the SH2 binding enrichment was 0.69.
FGLPRYRWLTH [TSPAN12_Y143_YF] showed an SH2 binding enrichment of 0.584.
With AEQDWYHGAIP [FER_Y461] the SH2 binding enrichment was 0.725.
For EGNERYEGYCV [GRIA3_Y451], the SH2 binding enrichment was 0.881.
Sequence QAKRKYQEASK [FES_Y156] has an SH2 binding enrichment of 1.16.
In the case of SDQPDYDSVAS [GIT2_Y392_N387S], the SH2 binding enrichment is reported as 0.783.
NVADHYRVFKP [ATP6V0D2_Y271_G272R_YF] showed an SH2 binding enrichment of 0.842.
Work on LARHMYDKEFF [MET_Y1230_D1228H_YF] yielded an SH2 binding enrichment of 0.7.
With RMGNLYDIDED [GRIN2A_Y1246] the SH2 binding enrichment was 0.599.
In the case of SVTCTYSPALF [TP53_Y126_N131Y_YF], the SH2 binding enrichment is reported as 0.795.
In the case of FSALDYKIFYY [WDPCP_Y210_L205F], the SH2 binding enrichment is reported as 1.22.
With PSTFRYERGSR [INPPL1_Y663_P659S_YF] the SH2 binding enrichment was 0.811.
With RHTRSYDYTEG [FGF7_Y56_M59T] the SH2 binding enrichment was 0.864.
TGQEEYSAMRD [KRAS_Y64_A59T] showed an SH2 binding enrichment of 0.838.
NVKGIYAVGDV [GSR_Y371] gave an SH2 binding enrichment of 0.741.
With PFTRNYFVRAV [CYBA_Y87_YF] the SH2 binding enrichment was 0.868.
Work on SIKHKYVTALF [KCNH2_Y611_D609H_YF] yielded an SH2 binding enrichment of 0.78.
Work on RGESFYQDTMN [RARS_Y338_R341T] yielded an SH2 binding enrichment of 0.98.
IITVHYVLEES [RYR2_Y4559_A4556T] showed an SH2 binding enrichment of 1.45.
Sequence DRKRQYELLKL [KIF4B_Y684] has an SH2 binding enrichment of 1.17.
DRIVNYSRASV [ATP7A_Y1459_I1464V] gave an SH2 binding enrichment of 0.766.
Sequence RSRSPYSPVLR [CDK13_Y399] has an SH2 binding enrichment of 1.2.
For RKLVDYDSARH [BIN1_Y150], the SH2 binding enrichment was 1.03.
ETKGDYEKILV [ANXA1_Y335] gave an SH2 binding enrichment of 0.815.
Sequence EIPTQYEAMAS [GFAP_Y242_R239P] has an SH2 binding enrichment of 0.674.
DDSNPYINVKL [MTHFD1_Y52_L51P] showed an SH2 binding enrichment of 1.32.
Work on AHLTEYLSTHF [UQCRC1_Y219_D215H_YF] yielded an SH2 binding enrichment of 0.811.
LSGVIYVILWK [PMP22_Y153_R157W] was tested, and the SH2 binding enrichment was 1.45.
IVWDSYTTNKV [GNB3_Y85] was tested, and the SH2 binding enrichment was 0.966.
PDGVEYLKNNP [GRIN3A_Y831_D835N] was tested, and the SH2 binding enrichment was 0.982.
Work on YEEDSYVERSQ [RET_Y905_K907E] yielded an SH2 binding enrichment of 0.726.
With PRSRSYSSTSI [REPS2_Y462] the SH2 binding enrichment was 0.893.

The sequences below were run against SHP2-C SH2 in the same assay as above.
In the case of ASPALYRLDLD [TRIL_Y352], the SH2 binding enrichment is reported as 0.557.
Work on LYEDRYLLGPS [ASS1_Y87_T91P] yielded an SH2 binding enrichment of 0.662.
Work on FGLPRYRWLTH [TSPAN12_Y143_YF] yielded an SH2 binding enrichment of 0.657.
With AEQDWYHGAIP [FER_Y461] the SH2 binding enrichment was 0.478.
Work on EGNERYEGYCV [GRIA3_Y451] yielded an SH2 binding enrichment of 0.693.
With QAKRKYQEASK [FES_Y156] the SH2 binding enrichment was 0.701.
Sequence SDQPDYDSVAS [GIT2_Y392_N387S] has an SH2 binding enrichment of 0.735.
In the case of NVADHYRVFKP [ATP6V0D2_Y271_G272R_YF], the SH2 binding enrichment is reported as 0.624.
Sequence LARHMYDKEFF [MET_Y1230_D1228H_YF] has an SH2 binding enrichment of 0.65.
Sequence RMGNLYDIDED [GRIN2A_Y1246] has an SH2 binding enrichment of 0.501.
In the case of SVTCTYSPALF [TP53_Y126_N131Y_YF], the SH2 binding enrichment is reported as 0.685.
FSALDYKIFYY [WDPCP_Y210_L205F] was tested, and the SH2 binding enrichment was 1.17.
Sequence PSTFRYERGSR [INPPL1_Y663_P659S_YF] has an SH2 binding enrichment of 0.879.
Work on RHTRSYDYTEG [FGF7_Y56_M59T] yielded an SH2 binding enrichment of 0.841.
TGQEEYSAMRD [KRAS_Y64_A59T] gave an SH2 binding enrichment of 0.704.
NVKGIYAVGDV [GSR_Y371] gave an SH2 binding enrichment of 0.738.
PFTRNYFVRAV [CYBA_Y87_YF] was tested, and the SH2 binding enrichment was 0.327.
Sequence SIKHKYVTALF [KCNH2_Y611_D609H_YF] has an SH2 binding enrichment of 0.901.
With RGESFYQDTMN [RARS_Y338_R341T] the SH2 binding enrichment was 0.807.
IITVHYVLEES [RYR2_Y4559_A4556T] was tested, and the SH2 binding enrichment was 1.56.
In the case of DRKRQYELLKL [KIF4B_Y684], the SH2 binding enrichment is reported as 1.04.
Work on DRIVNYSRASV [ATP7A_Y1459_I1464V] yielded an SH2 binding enrichment of 0.706.
With RSRSPYSPVLR [CDK13_Y399] the SH2 binding enrichment was 1.47.
RKLVDYDSARH [BIN1_Y150] was tested, and the SH2 binding enrichment was 0.42.
In the case of ETKGDYEKILV [ANXA1_Y335], the SH2 binding enrichment is reported as 0.54.
Work on EIPTQYEAMAS [GFAP_Y242_R239P] yielded an SH2 binding enrichment of 0.629.
Work on DDSNPYINVKL [MTHFD1_Y52_L51P] yielded an SH2 binding enrichment of 0.811.
Sequence AHLTEYLSTHF [UQCRC1_Y219_D215H_YF] has an SH2 binding enrichment of 0.809.
For LSGVIYVILWK [PMP22_Y153_R157W], the SH2 binding enrichment was 0.99.
IVWDSYTTNKV [GNB3_Y85] gave an SH2 binding enrichment of 0.887.
PDGVEYLKNNP [GRIN3A_Y831_D835N] was tested, and the SH2 binding enrichment was 0.849.
YEEDSYVERSQ [RET_Y905_K907E] showed an SH2 binding enrichment of 0.75.
With PRSRSYSSTSI [REPS2_Y462] the SH2 binding enrichment was 0.423.

These sequences were tested against c-Src SH2 in the same assay as above.
ASPALYRLDLD [TRIL_Y352] showed an SH2 binding enrichment of 0.457.
Sequence LYEDRYLLGPS [ASS1_Y87_T91P] has an SH2 binding enrichment of 0.626.
In the case of FGLPRYRWLTH [TSPAN12_Y143_YF], the SH2 binding enrichment is reported as 0.609.
For AEQDWYHGAIP [FER_Y461], the SH2 binding enrichment was 0.634.
For EGNERYEGYCV [GRIA3_Y451], the SH2 binding enrichment was 2.3.
QAKRKYQEASK [FES_Y156] was tested, and the SH2 binding enrichment was 0.602.
SDQPDYDSVAS [GIT2_Y392_N387S] showed an SH2 binding enrichment of 0.526.
NVADHYRVFKP [ATP6V0D2_Y271_G272R_YF] was tested, and the SH2 binding enrichment was 0.397.
Sequence LARHMYDKEFF [MET_Y1230_D1228H_YF] has an SH2 binding enrichment of 0.546.
With RMGNLYDIDED [GRIN2A_Y1246] the SH2 binding enrichment was 1.23.
In the case of SVTCTYSPALF [TP53_Y126_N131Y_YF], the SH2 binding enrichment is reported as 0.422.
Work on FSALDYKIFYY [WDPCP_Y210_L205F] yielded an SH2 binding enrichment of 1.27.
PSTFRYERGSR [INPPL1_Y663_P659S_YF] showed an SH2 binding enrichment of 0.47.
For RHTRSYDYTEG [FGF7_Y56_M59T], the SH2 binding enrichment was 1.5.
For TGQEEYSAMRD [KRAS_Y64_A59T], the SH2 binding enrichment was 0.639.
NVKGIYAVGDV [GSR_Y371] was tested, and the SH2 binding enrichment was 0.533.
In the case of PFTRNYFVRAV [CYBA_Y87_YF], the SH2 binding enrichment is reported as 0.519.
Work on SIKHKYVTALF [KCNH2_Y611_D609H_YF] yielded an SH2 binding enrichment of 0.473.
In the case of RGESFYQDTMN [RARS_Y338_R341T], the SH2 binding enrichment is reported as 0.694.
IITVHYVLEES [RYR2_Y4559_A4556T] showed an SH2 binding enrichment of 1.37.
Sequence DRKRQYELLKL [KIF4B_Y684] has an SH2 binding enrichment of 1.49.
With DRIVNYSRASV [ATP7A_Y1459_I1464V] the SH2 binding enrichment was 0.533.
Work on RSRSPYSPVLR [CDK13_Y399] yielded an SH2 binding enrichment of 0.66.
Work on RKLVDYDSARH [BIN1_Y150] yielded an SH2 binding enrichment of 0.387.
Work on ETKGDYEKILV [ANXA1_Y335] yielded an SH2 binding enrichment of 1.08.
EIPTQYEAMAS [GFAP_Y242_R239P] showed an SH2 binding enrichment of 2.5.
DDSNPYINVKL [MTHFD1_Y52_L51P] showed an SH2 binding enrichment of 0.701.
In the case of AHLTEYLSTHF [UQCRC1_Y219_D215H_YF], the SH2 binding enrichment is reported as 0.412.
LSGVIYVILWK [PMP22_Y153_R157W] was tested, and the SH2 binding enrichment was 0.595.
With IVWDSYTTNKV [GNB3_Y85] the SH2 binding enrichment was 0.585.
Sequence PDGVEYLKNNP [GRIN3A_Y831_D835N] has an SH2 binding enrichment of 0.348.
With YEEDSYVERSQ [RET_Y905_K907E] the SH2 binding enrichment was 1.48.
PRSRSYSSTSI [REPS2_Y462] gave an SH2 binding enrichment of 0.388.
